Data taken from patent US20210379110A1 (LENTIGEN TECHNOLOGY, published 2021).

Target: T1, recombinant human CD22 (labeled) (human, UniProt P20273 20-687, limits assumed)
T1 construct: Labeled antigen titrated on yeast; It may be CD22-Fc; also called labeled CD22
T1 sequence (looked up): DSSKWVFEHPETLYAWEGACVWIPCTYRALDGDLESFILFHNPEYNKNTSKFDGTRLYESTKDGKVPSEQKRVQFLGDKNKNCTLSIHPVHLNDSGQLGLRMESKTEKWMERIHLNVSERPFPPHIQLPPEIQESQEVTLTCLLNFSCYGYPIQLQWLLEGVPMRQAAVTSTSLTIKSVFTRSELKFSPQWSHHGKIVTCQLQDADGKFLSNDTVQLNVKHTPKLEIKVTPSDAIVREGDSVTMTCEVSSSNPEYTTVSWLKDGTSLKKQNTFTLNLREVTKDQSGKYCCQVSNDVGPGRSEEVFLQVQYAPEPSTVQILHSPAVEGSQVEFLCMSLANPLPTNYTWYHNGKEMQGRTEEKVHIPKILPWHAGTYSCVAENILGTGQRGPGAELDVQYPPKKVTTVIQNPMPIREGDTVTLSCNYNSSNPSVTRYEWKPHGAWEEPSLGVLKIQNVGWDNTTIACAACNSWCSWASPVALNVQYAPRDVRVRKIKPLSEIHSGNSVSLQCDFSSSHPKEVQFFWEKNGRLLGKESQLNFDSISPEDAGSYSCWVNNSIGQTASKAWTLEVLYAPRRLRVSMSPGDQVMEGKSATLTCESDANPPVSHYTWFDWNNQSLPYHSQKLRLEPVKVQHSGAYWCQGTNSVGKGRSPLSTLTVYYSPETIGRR
Experiment: flow cytometry of yeast-displayed scFv with decreasing amounts of labeled CD22
Procedure: After electroporation, the resulting mutant library was then grown overnight at 30° C. for 16 hours in SDCAA medium and then switched into SGCAA medium at 30° C. for another 16 hours. The mutant library was then sorted through MACS (immunomagnetic column, Miltenyi Biotec) with CD22-Fc as the capture antigen to downsize the library and to increase the population of mutants that could bind to CD22-Fc. The strongest binders were then selected by double staining the pools with Anti-c-Myc-Alexa 488 and […] and selecting for the binders that had the highest binding affinities as well as c-Myc expression levels. This process was then repeated two more times, until flow cytometry of yeast particles with fluorescently tagged antigen yielded average binding affinities of the mutant pools that were increased over the starting construct. Binding affinities were estimated by flow cytometry of yeast pools using decreasing amounts of labeled CD22.

EC50: < 0.01 µg/mL
B1: human anti-CD22 ScFv binder 16P17 (scFv, V domains shown)
VH: QVQLQQSGPGLVKHSQTLSLTCAISGDSVSSNSAAWNWIRQSPSRGLEWLGRTYYRSKWYNDYAVSVKSRITINPDTSKNQFSLQLNSVTPEDTAVYYCAQEVEPHDAFDIWGQGTMVTVSS
VL: DIQMTQSPSSVYASVGDKVTITCRASQDVSGWLAWYQQKPGLAPQLLISGASTLQGEVPSRFSGSGSGTDFTLTISSLQPEDFATYYCQQAKYFPYTFGQGTKLEIK
notes: In the CARs the order is VH-(GGGGS)3-VL; also called CD22 scFv 16P17
